Experimental findings from US20220281965A1 (AstraZeneca / MedImmune, published 2022) are described below.

For one assay, the target named is T1, mature human GDF-15 (human, UniProt Q99988 197-308).
T1 construct: Homodimer; also called hGDF-15; recombinant hu-GDF15
T1 sequence: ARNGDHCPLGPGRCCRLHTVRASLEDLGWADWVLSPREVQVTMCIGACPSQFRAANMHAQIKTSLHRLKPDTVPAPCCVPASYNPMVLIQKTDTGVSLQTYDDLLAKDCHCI
Description: HTRF epitope competition; competitor DyLight 650 labelled Antibody A; Europium labelled human GDF-15. The text has this:
Antibodies from the immunizations with human GDF-15, in the form of crude supernatants from the immunization or in the form of purified IgGs, were chosen on the basis that they bind and compete with an epitope recognized by a control anti-GDF-15 antibody “Antibody A”. A biochemical epitope competition format was applied using an HTRF epitope competition assay that measured the binding of DyLight 650 labelled Antibody A to Europium labelled human GDF-15 (Prospec). In the absence of Antibody A binding, there is no detectable FRET fluorescence. When Antibody A binds to GDF-15, the resulting physical proximity between the secondary reagent donor/acceptor pair results in FRET. Competition with an antibody that recognizes the same or similar epitope will result in a dose dependent reduction of the FRET signal. FRET was measured ratiometrically [665 nm (acceptor)/620 nm (donor)] on an Envision plate reader, and IC₅₀ values were determined by curve fitting the data to a four parameter logistic equation using PRISM 6® software (Graphpad).

The target in assay [1] is T2, biotinylated cynomolgus GDF-15 (cynomolgus, UniProt G7PWZ3 197-308, biotinylated, sites not stated).
T2 construct: also called Cyno GDF-15
T2 sequence: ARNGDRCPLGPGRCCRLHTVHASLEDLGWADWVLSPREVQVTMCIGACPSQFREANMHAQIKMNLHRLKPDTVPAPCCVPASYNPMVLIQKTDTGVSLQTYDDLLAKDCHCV
Put plainly: HTRF binding assay, biotinylated antigen, titration of antibody. The text has this:
(§1) Supernatants generated from the immunizations with human GDF-15 and purified IgGs were screened to identify IgGs with specific binding to human, cynomolgus, or mouse GDF-15. The HTRF (Homogeneous Time Resolved Fluorescence) assay is based on detection of a measurable FRET signal upon binding of a titration of test antibody to biotinylated human H202D GDF-15 variant, cynomolgus GDF-15 and mouse GDF-15. Europium cryptate (EuK) labelled Streptavidin and anti-human IgG XL665 (Cis Bio) were used as secondary detection reagents serving as energy donor and acceptor respectively. In the absence of test antibody binding, there is no detectable FRET fluorescence. When test antibody binds to GDF-15, the resulting physical proximity between the secondary reagent donor/acceptor pair results in FRET. FRET was measured ratiometrically [665 nm (acceptor)/620 nm (donor)] on an Envision plate reader, and data plotted using PRISM 6® software (Graphpad).

In assay [2] the target is T3, biotinylated human H202D GDF-15 variant (human, UniProt Q99988 197-308, biotinylated, sites not stated).
T3 construct: also called Human GDF-15 H202D
T3 chain: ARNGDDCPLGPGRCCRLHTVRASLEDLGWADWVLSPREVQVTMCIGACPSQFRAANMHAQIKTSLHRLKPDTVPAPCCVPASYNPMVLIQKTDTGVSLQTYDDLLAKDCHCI
Described as above.
Text: as §1

The target of a further assay is T4, mouse GDF-15 (mouse, UniProt Q9Z0J7 189-303).
T4 construct: also called mGDF-15
T4 sequence: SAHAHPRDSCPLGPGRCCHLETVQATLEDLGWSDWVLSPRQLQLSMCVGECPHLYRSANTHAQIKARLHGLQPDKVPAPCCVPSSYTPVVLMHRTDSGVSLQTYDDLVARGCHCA
The description is as above.
Text: as §1

B1: AB1170036 (antibody, V domains shown)
VH: DVKLVESGEGLVKPGGSLKLSCAASGFTFSSYAMSWVRQTPEKRLEWVAYISSGGDNIYYADTVKGRFTISRDNARNTLYLQMSSLKSEDTAMYYCTRALVENAYFDYWGQGTTLTVSS
VL: DSVLTQSPASLLVSLGQRATISCRASKSVSTSTYSYMHWYQQKPGQPPKLLIKYASYLESGVPARFSGSGSGTDFTLNIHPVEEEDAATYYCQHSREFPWTFGGGTKLEIK
In the assay with mature human GDF-15, B1 returned a concentration for half-maximal inhibition (IC50) of 0.622 nM. The binding result (in assay [1]; in assay [2]; with mouse GDF-15) was “binds” each time.

B2: AB1170040 (antibody, V domains shown)
VH: DVKLVESGEGLVKPGGSLKLSCAASGFTFSSYAMSWVRQTPEKRLEWVAYISSGGDYIYYADTVKGRFTISRDNARNTLYLQMSSLKSEDTAMYYCTRALVDNAYFDYWGQGTTLTVSS
VL: DIVLTQSPASLAVSLGQRATISCRASKSVSTSSYSYMHWYQQKPGQPPKLLIKYASYLEFGVPARFSGSGSGTDFTLNIHPVEEEDAATYYCQHSREFPWTFGGGTKLEIK
Take B2: the IC50 in the assay with mature human GDF-15 is 1.42 nM. Besides, the binding result (in assay [1]; in assay [2]; with mouse GDF-15) was “binds” throughout.

B3: AB1170070 (antibody, V domains shown)
VH: EVQLQQSGPELVKPGASVKIPCKASGYTFTDYNMDWVKQSHGKSLEWIGDINPYNGITIYNQKFKGKATLTVDKSSSTAYMELRSLTSEDTAVYYCAREEKLGTSFDYWGQGTTLTVSS
VL: DIQMTQSPASLSASVGETVTITCRASENIYSNLAWYQQKQGKSPQLLVYAATNLADGVPSRFSGSGSGTQFSLKINSLQPEDFGSYYCQHFYGTPWTFGGGTKLEIK
Turning to B3, the 50% inhibitory concentration (IC50) with mature human GDF-15 was determined as 6.83 nM. For the same molecule, the binding result (in assay [1]; in assay [2]; with mouse GDF-15) was “binds” throughout.

B4: AB1170043 (antibody, V domains shown)
VH: QVTLKESGPGILQSSQTLSLTCSFSGFSLITSGLGVSWIRQPSGKGLEWLAHIYWDDDKRYNPSLKSRLTISKDTSRNQVFLKITSVDTADTATYYCARGGYDGYYDYWGQGTTLTVSS
VL: DVVMTQTPLSLPVSLGDQASISCRSSQSIVHSNGNTNLEWYLQKPGQSPKLLIYKVSNRLSGVPDRFSGSGSGTDFTLKISRVEAEDLGVYYCFQGSHVRTFGGGTKLEIK
As for B4, the half-inhibitory concentration (IC50) with mature human GDF-15 stood at 1.95 nM. Moreover, the binding result (in assay [1]; in assay [2]; with mouse GDF-15) was “binds” throughout.

B5: AB1170086 (antibody, V domains shown)
VH: QVTLKESGPGILQSSQTLSLTCSFSGFSLSTSGMGVSWIRQPSGKGLEWLAHIYWDDDKRYNPSLESRLTISKDTSRNQVFLKITSVDTTDTATYYCARGGYDGYYDYWGQGTTLTVSS
VL: DVVMTQTPLSLPVSLGDQASISCRSSQSIVHSNGNTNLEWYLQKPGQSPKLLIYKVSNRLSGVPDRFSGSGSGTDSTLKISRVEAEDLGVYYCFQGSHVRTFGGGTKLEIK
B5 displayed a half-inhibitory concentration (IC50) in the assay with mature human GDF-15 of 1.11 nM. Besides, the binding result (in assay [1]; in assay [2]; with mouse GDF-15) was “binds” throughout.

B6: AB1170028 (antibody, V domains shown)
VH: DVKLVESGEGLVKPGGSLKLSCAASGFTFSSFAMSWVRQTPEKRLEWVAYITSGGDYIFYADTVKGRFTISRDNARNTLYLQMSSLKSEDTAMYYCTRDDGYLWFAYWGQGTLVTVSA
VL: SIVMTQTPKFLPVSAGDRVTMTCKASQNVGNNVAWYQQKPGQSPKLLIYYASNRYTGVPDRFTGSGSGTDFTFTISSVQVEDLAVYFCQQHYSSPLTFGAGTKLELK
On to B6, for which the IC50 with mature human GDF-15 came to 0.485 nM. Also, the binding result (in assay [1]; in assay [2]; with mouse GDF-15) was “binds” each time.

B7: AB1170010 (antibody, V domains shown)
VH: QVTLKESGPGILQPSQTLSLTCSFSGFSLSTYGMGVGWIRQPSGKGLEWLANIWWNDDKYYNSALKSRLTISKDTSNNQVFLKISSVDTADTATYYCAQEVYGWFAYWGQGTLVTVSS
VL: DIVMTQSQKFMSTSVGDRVSVTCKASQNVGTNVAWYQQKPGQSPKALIYSASYRYSGVPDRFTGSGSGTDFTLTISNVQSEDLAEYFCQQYNSYPLTFGGGTKLEIK
Molecule B7 had a 50% inhibitory concentration (IC50) in the assay with mature human GDF-15 of 0.758 nM. The binding result (in assay [1]; in assay [2]; with mouse GDF-15) was “binds” throughout.

B8: AB1170073 (antibody, V domains shown)
VH: QVTLKESGPGILQPSQTLSLTCSFSGFSLSTFGMGVGWIRQPSGKGLEWLAHIWWDDDKYYNPALKSRLTISKDTSKNQVFLKIANVDTADTATYYCARIAYDGYLDYWGQGTTLTVSS
VL: DIVMTQSQKFMSTSVGDRVSVTCKASQNVGTDVAWYQQKPGQSPKSLIYSASYRYSGVPDRFTGSGSGTDFTLTISNVQSEDLAEYFCQQYNSYPYTFGGGTKLEIK
In turn, B8 gave an IC50 with mature human GDF-15 of 2.11 nM. The binding result (in assay [1]; in assay [2]; in the assay with mouse GDF-15) was “binds” throughout.

B9: AB1170072 (antibody, V domains shown)
VH: QVTLKESGPGILQPSQTLSLTCSFSGFSLSTYGMGVGWIRQPSGKGLEWLANIWWNDDKYYNSALKSRLTISKDTSNNQVFLKISSVDTADTATYYCAQMAYSWFAYWGQGTLVTVSS
VL: DIVMTQSQKFMSTSVGDRVSVTCKASQNMDTNVAWYQQKPGQSPKALIYSASYRYSGVPDRFTGSGSGTDFTLTISNVQSEDLAEYFCQQYNSYPFTFGSGTKLEIK
As to B9, in the assay with mature human GDF-15, the half-inhibitory concentration (IC50) was 0.693 nM. Further, the binding result (in assay [1]; in assay [2]; with mouse GDF-15) was “binds” each time.

B10: AB1170074 (antibody, V domains shown)
VH: EVQLQQSGRELVKPGASVKMSCKASGYTFTNYVMHWVKQKPGQGLEWIGYINPHNDGTEYSEKFKGKATLTSDKSSSTAYMELSSLTSEDSAVYYCARWYYDGGYFAYWGQGTLVTVSA
VL: DIVMTQSPATLSVTPGDRVSLSCRASQSISDYLHWYQQKSHESPRLLIKYASQSISGIPSRFSGSGSGSDFTLSINSVEPEDVGVYYCQNGHSFPLTFGAGTKLELK
B10 displayed an IC50 with mature human GDF-15 of 1.37 nM. The binding result (in assay [1]; with mouse GDF-15) was “binds” each time.

B11: AB1170019 (antibody, V domains shown)
VH: EVQLQQSGPELVKPGASVKIPCKASGYTFTDYNMDWVKQSHGKSLEWIGDINPNNGGTFYNQKFKDKATLTVDKSSSTAYMELRSLTSEDTAVYYCAREEKLYFGLMDYWGQGTSVTVSS
VL: DIQMTQSPASLSASVGETVTITCRASENIYSYLAWYQQKQGKSPQLLVYNAKTLAEGVPSRFSGSGSGIQFSLKINILQPEDFGNYYCQHQYGSPPTFGGGTKLEIK
In turn, B11 showed a 50% inhibitory concentration (IC50) with mature human GDF-15 of 0.864 nM. In addition, the binding result in assay [1] and in assay [2] was “binds” throughout.

B12: AB1170047 (antibody, V domains shown)
VH: QVQLQQSGPELVKPGASVKLSCKASGYTFTSYDINWVKQRPGQGLEWIGWIYPRDGISKYNEKFKGKATLTVDTSSSTAYMELHSLTSEDSAVYFCAGTYDPAYFDYWGQGTTLTVSS
VL: DIVLTQSPATLSVTPGDRVSLSCRASQSISYYLHWYQQKSHESPRLLIKYASQSISGIPSRFSGSGSGTDFTLSINSVETEDFGMYFCQQSNSWPYTFGGGTKLEIK
In turn, B12 displayed an IC50 with mature human GDF-15 of 1.36 nM. Besides, the binding result (in assay [1]; in assay [2]; with mouse GDF-15) was “binds” in each case.

B13: AB1170069 (antibody, V domains shown)
VH: QVQLQQSGPELVKPGASVKLSCKASGYTFTSYDINWVKQRPGQGLEWIGWIYPRDGISKYNEKFEGKATLTVDTSSSTAYMELHSLTSEDSAVYFCAGTSDPAYFDYWGQGTTLTVSS
VL: DIVLTQSPATLSVTPGDRVSLSCRASQSISYYLHWYQQKSHESPRLLIKYASQSISGIPSRFSGSGSGTDFTLSINSVETEDFGMYFCQQSNSWPYTFGGGTKLEIK
B13 returned an IC50 with mature human GDF-15 of 0.759 nM. Also, the binding result (in assay [1]; in assay [2]; with mouse GDF-15) was “binds” in each case.
